# The RNAGym collection of RNA variant scans (doi:10.1073/pnas.2313332121)
# Variants at the floor of the assay were thinned out.
# B1: TPR 5TU (parent)
# chain: GGAUCUUCUCGAUCUAACAAAAAAGACAAAUCUGCCACAAAGCUUGAGAGCAUCUUCGGAUGCAGAGGCGGCAGCCUUCGGUGGCGCGAUAGCGCCAACGUUCUCAACUAUGACACGCAAAACGCGUGCUCCGUUGAAUGGAGUUUAUCAUG
# Variants of: B1
# Experiment: polymerase ribozyme fitness, log enrichment relative to wild type (log ratio); higher = more active; in vitro selection for triplet polymerase activity
# Outline: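 One round of in vitro selection, in triplicate, was applied to PCR-built, transcribed mutant libraries of each subunit of a heterodimeric triplet polymerase ribozyme. The steps were annealing with a biotinylated primer, partner subunit and triplets, incubation frozen at −7 °C, gel excision of extended constructs, streptavidin-bead capture and RT-PCR. Fitness is the logarithm, base 2, of genotype enrichment over wild-type enrichment from inverse-variance-weighted replicate averages of Illumina-sequenced inputs and outputs, keeping genotypes with ≥10 input reads and ≥1 read per output.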
row,Variant,polymerase ribozyme fitness (log ratio)
1,GGAUCUUCUCGAUCUAACAAAAAAGACAAAUCUGCCACGAAGCUUGAGAGCAACUUCCGAUGCAGAGGCGGGAGCCUUCGGUGGCGCGAUAGCGGCAACGUUGUCAACUAUGACACGCAAAACGCGUGCUCCGUUGAAUGGAGUUUAUCAUG,≤ -4.2
2,GGAUCUUCUCGAUCUAACAAAAAAGACAAAUCUGCCACGAAGCUUGAGAGCAUCUUCGGAUGCAGAGGCGGCAGCCUUCGGUGGCGCGAUAGCCCCAACGUUCUCAACUAUGACACGCAAAACGCGUGCUCCGUUGAAUGGAGUUUAUCAUG,-2.32
3,GGAUCUUCUCGAUCUAACAAAAAAGACAAAUCUGCCACUAAGCUUGAGAGCGUCUUCGGAUGCAGAGGCGGCAUCCUUCGGUGGCGCGAAAGCGCCAACGUUCUCAACUAUGACACGCAAAGCGGGUGUUCCGUUGAAUGGAGUUUAUCAUG,≤ -4.2
4,GGAUCUUCUCGAUCUAACAAAAAAGACAAAUCUGCCACGAAGCUUGAGAGCAUCUUCGGAUGCAGAGGCGGCAGCCUUCGGUGGCCCGAUAGCGCCAACGUUCUCAACCAUGACACGCAAAACGCGUUCUCCGUUGAAUCGAGUUUAUCAUG,≤ -4.2
5,GGAUCUUCUCGAUCUAACAAAAAAGACAAAUCUGCCACGAAGCUUGAGAGCAUCUUCGCAUGCAGAGGCGGCAGCCUUCGGUGGCGCGAUAGCGCCAACGUUCACAACUAUGACACGCAAAACGCGUGCUCCGUUGAAUGGAGUUUAUCAUG,-3.12
6,GGAUCUUCUCGAUCUAACAAAAAAGACAAAUCUGCCACGAAGCUUGAGAGCAUCUUCGGAUGCAGAGGCAGCAGCCGUCGGUGGCGCGAUAGCGCCAACGUUCUCAACUAUGACACGCAAAACGCGUGCUCCGUUGAAUGACGUUUAUCAUG,≤ -4.2
7,GGAUCUUCUCGAUCUAACAAAAAAGACAAAUCUGCCACUAAGCUUGUGAGCAUCUUCGGAUGCAGAGGCGGCAGCCUUCGGUGGCGCGAUAGCGCUAACGUUCUCAACUAUGACACGCAAAGCACGUGCUCCGUUGAAUGGAGUUUAUCAUG,-3.16
8,GGAUCUUCUCGAUCUAACAAAAAAGACAAAUCUGCCACGAAGCUUGAGAGCAUCUUCGCAUGCAGAGGCGACAGCCUUCGGUGGCGCGAUAGCGCCAACGCUCUCAACUAUGACGCGCAAAACGCGUGCUCCGUUGAAUUGAGUUUAUCAUG,≤ -4.2
9,GGAUCUUCUCGAUCUAACAAAAAAGACAAAUCUGCCACUAAGCUUGAGAGCUUCUUCGGAUGCAGAGGCGGCAGCGUUCGGUAGCGCGAUAGCGCCAACGUUCUCAACUAUGACACGCAAAACGCGUGCUCCGUUGAAUGGAGUUUAUCAUG,≤ -4.2
10,GGAUCUUCUCGAUCUAACAAAAAAGACAAAUCUGCCACGAAGCUUGAGAGCAUCUUCGGAUGCAGAGGCGGCAGCCUUCGGUGGCGCGAUAGCGCCAACGCUCUCAACUAUGACACGCAAAACGCGUGCUCCGUUGAAUGGAGUUUAUCAUG,-1.89
11,GGAUCUUCUCGAUCUAACAAAAAAGACAAAUCUGCCACGAAGCUUGAGAGCAUCUUCGGAUGCAGAGGCGGCAGCCUUCGGUGGCGCGAUAGCGCCAACGUUCUCAACUAUGACACGCAAAACGCGUGCUCCGGUGAAUGGAGUUUAUCAUG,-3.86
12,GGAUCUUCUCGAUCUAACAAAAAAGACAAAUCUGCCACGAAGCUUGAGAGCAUCUUCGGAUGCAGAGGCGGCAGCCUUCGGUGACGCGAUAGCGCCAACGUUCUCAACUAUGACAUGCAAAACGCGUGCUCCGUUGAAUGGAGUUUAUCAUG,-1.91
13,GGAUCUUCUCGAUCUAACAAAAAAGACAAAUCUGCCACGAAGCUUGAGAGCAUCUUCGGAUGCAGAGGCGGCAGCCAUCGGUGGCGCGAUAGCGCCAACGUUCUCAACUAUGACACGCAAAACGCGUGCUCCGUUGAAUGGACUUUAUCAUG,≤ -4.2
14,GGAUCUUCUCGAUCUAACAAAAAAGACAAAUCUGCCACUAAGCUUGGGAGCAUCUUCGGAUGCAGAGGCGGCAGCCUUCGGUGGCGCGAUAGCGUCAACGUUCUCAACUGUGACACGCAAAACGCGUGCUCCGUUGAAUGGAGUUUAUCAUG,-3.7
15,GGAUCUUCUCGAUCUAACAAAAAAGACAAAUCUGCCACGAAGCUUGAGAGCAUCUUCGGAUGCAGAGGCGGCAGCCUUCUGUGGCGCGAUAGCGUCAACGUUCUCAACUAUGACAGGCAAAACGCGUGCUCCGUUGAAUGGAGUUUAUCAUG,-3.6
16,GGAUCUUCUCGAUCUAACAAAAAAGACAAAUCUGCCACGAAGCUUGAGAGCAUCUGCCGAUGCAGAGGCGGCAGCCUUUGGUGGCGCGAUAGCGCCAACGUACUCAACUAUGACACGCAAAACGCGGGCUCCGUUGAAUGGAGUUUAUCAUG,≤ -4.2
17,GGAUCUUCUCGAUCUAACAAAAAAGACAAAUCUGCCACUAUGCUUGAGAGCAUCUACGGAUGCAGAGGCGACAGCCUUCGGUGGCGCGAUAGCGCCAACGUUCUCAACUAUGACACGCAAAACGCGUGCUCCGUUGAAUGGAGUUUAUCAUG,≤ -4.2
18,GGAUCUUCUCGAUCUAACAAAAAAGACAAAUCUGCCACGAAGCUUGAGAGCAUCUUCGGAUGCAGAGGCGGCAGCCUUCGGUGGCGCAAUAGCGCCAACGUUCUCAACUAUGACACGCAAAACGCGUGCUCCGUUGAAUGGUGUUUAUCAUG,≤ -4.2
19,GGAUCUUCUCGAUCUAACAAAAAAGACAAAUCUGCCACGAAGCUUGAGAGCAUCUUCGGAUGCAGAGGCGGCAGCCUUCGGUGGCGCCAUUGCGCCAACGUUCUCAACUAUGACACGCAAAACGCGUGCUCCGUUUAAUGGAGUUUAUCAUG,≤ -4.2

row,Variant,polymerase ribozyme fitness (log ratio)
1,GGAUCUUCUCGAUCUAACAAAAAAGACAAAUCUGCCACGAAGCUUGAGAGCAUCAUCGGAUGCAGAGGCGGCAGCCUUCGGUGGCGCGAUAGCGCAUACGUUCUCAACUAUGACACGCAAAACGCGUGCUCCGUUGAAUGGAGUUUAUCAUG,-3.27
2,GGAUCUUCUCGAUCUAACAAAAAAGACAAAUCUGCCACGAAGCUUGAGAGCAUCAUCGGAUGCAGAGGCGACAGCCUUCGGUGGCGCGAUACCGCUAACGUUCUCAACUAUGACACGCAAAACGCGUGCUUCGUUGAAUGGAGUUUAUAAUG,≤ -4.2
3,GGAUCUUCUCGAUCUAACAAAAAAGACAAAUCUGCCACGAAGCUUGAGAGCAUCUUCGAAUGCAGAGGCGGCAGCCUUCGGUGGCGCGAUAGCGCCAACGUUCUCAACUAUGACAUGCAAAACGCGUGCUCCGUUGAAUGGAGCUUAUCAUG,-4.19
4,GGAUCUUCUCGAUCUAACAAAAAAGACAAAUCUGCCACGAAGCUUGAGAGCAUCUUCGGAUGCAGAGGCGGCAGCCUUCGGUAGCGCGAUAGCGCCAACGAUCUCAACUAUGACACGCAAAACGCGUGCUCCGUUGAAUGGAGUUUAUCAUG,≤ -4.2
5,GGAUCUUCUCGAUCUAACAAAAAAGACAAAUCUGCCACGAAGCUAGAGUGCAUCUUCGGAAGCAGAGGCGGCAGUCUUCGGUUGCGCGAUAGCGCCAACGUUCUCAACUAUGACACGCAAAACGCGUGGUCCGUUGAAUGGAGGUUAUCAUG,≤ -4.2
6,GGAUCUUCUCGAUCUAACAAAAAAGACAAAUCUGCCACGAAGCUUGAGAGCAUCUUCGGAUGCAGAGGCGGCAGCCUUCGGUGGCGCGAUAGCGCCAACGUUCUCAACUAUGACACGCAAAACGCGUGCUCCGUUGAAUGCAGUUUAUCAUG,-2.65
7,GGAUCUUCUCGAUCUAACAAAAAAGACAAAUCUGCCACGAAGCUUGAGAGCAUCUUCGGAUGCAGAGGCGGCAGCCUUCGGUGGCGCGAUAGCGCCAACGUUCUCAACUAUGACACCCAAAACGCGUGCUCCGUUGAAUGGAGUUUAUCAUG,-1.91
8,GGAUCUUCUCGAUCUAACAAAAAAGACAAAUCUGCCACUUAGCUUGAGAGCAUCUUCGGAUGCAGAGGCGGCAGCCUUCGGUGGCGCGAUUGCGGCAACGUUCUCAACUAUGACACGCAAAACGCGUGCUCCGUUGAAUGGAGUUUAUCAUG,≤ -4.2
9,GGAUCUUCUCGAUCUAACAAAAAAGACAAAUCUGCCACGAAGCUUGAGAGCAUCUUCGGAUGCAGAGGCGGCAGCCUUCGGUAGCGCGAUAGCGCCAACGUUCUCAACUAUGACACGCAAAACGCGUGCUCCGUUGAAUGCAGUUUAUCAUG,-3.09
10,GGAUCUUCUCGAUCUAACAAAAAAGACAAAUCUGCCACGAAGCUUGAGAGCAUCUUCGGAUGCAGAGGCGGCAGCCUUCCGUGGCGCGAUAGUGCCAACGUUCUCAACUAUGACACGUAAAACGCGUGCUCCGUUGAAUGGAGUUUAUCAUG,-3.96
11,GGAUCUUCUCGAUCUAACAAAAAAGACAAAUCUGCCACUACGCUUGAGAGCAUCUUCGGAUGCAGAGGCGGCAGCCUUCGGUGGCGCGAUAGCGCCAGCGUUCUCAACUAUGACACGCAAAACGCGUGCUCCGUUGAAUGGAGUUUAUCAUG,-2.72
12,GGAUCUUCUCGAUCUAACAAAAAAGACAAAUCUGCCACGAAGCUUGAGAGCAUCGUCGGAUGCAGAGGCGGCAGCCUUCGGUGACGCGAUAGCGCCAACGUUCUCAACUAUGACACGCAAAACGCGUGCUCCGUGGAAUGGAGUUUAUCAUG,≤ -4.2
13,GGAUCUUCUCGAUCUAACAAAAAAGACAAAUCUGCCACGAAGCUUGAGAGCAUCUUCGGAUACAGAGGCGGCAGCCUUCGGUGGCGCGAUAGCACCAACGUUCUCAACUAUGACACGCAUAACGCGUGCUCCGUUGAAUGGAUUUUAUCAUG,≤ -4.2
14,GGAUCUUCUCGAUCUAACAAAAAAGACAAAUCUGCCACUACGCUUGAGAGCAUCUUCGGAUGCAGAGGCGGCAGCCUUCCGUGUCGCGAUAGCGCCAACGUUCUCAACUAUGACACGCAAAACGCGUGCUCCGUUGAAUGGCGUUUAUAAUG,≤ -4.2
15,GGAUCUUCUCGAUCUAACAAAAAAGACAAAUCUGCCACUCAUCUUGAAAGCAUCUUCGGUUGCAGAGGCGGCAGCCUUCGGGGGAGCGAUAGCGCCAACGUUCACAACUAUGACACGCAAAACGCGCGCUCCGUUGAAUGGAGUUUAUCAUG,≤ -4.2
16,GGAUCUUCUCGAUCUAACAAAAAAGACAAAUCUGCCACGAAGCUUGAGAGCAUCUUCGGAUGCAGAGGCGGCAGCCGUCGGUGGCGCGAUAGCGCCAACGUUCUCAACUAUGACACGCAAAACGCGUGCUCCGUUGAAUGGAGUUUAUCAUG,≤ -4.2
17,GGAUCUUCUCGAUCUAACAAAAAAGACAAAUCUGCCACUAAGCUUGAGCGCAUCUUCGGAUGCAGAGGCGGCAGCCUUCGGUGGCGCGAUAGCGCCAACGUUCUCAACUAUGACACGCAAAACGCGUGCUCCGUUGGAUGGAGUUUAUCAUG,≤ -4.2
18,GGAUCUUCUCGAUCUAACAAAAAAGACAAAUCUGCCACGAAGCUUGAGAGCAACUUCGGAUGCAGAGGCGGCAGCCUUCGGUGGCGUGAUAGCGCCAACGUUCUCAACUAUGACCCGCAAAACGCGUGCUCCGUUGAAUGGAGUUUAUCAUG,-3.83
19,GGAUCUUCUCGAUCUAACAAAAAAGACAAAUCUGCCACGAAGCUUGAGAGCAUCUUCGGAUGCAGAGGCGGCAGCCUUCAGUGGCGCGAUAGCGCCAACGUUCUCAACUAUGACACGCAAAACGCUUGCUCCGUUGAGUGGAGUUUAUCAUG,≤ -4.2
